Measured values taken from the supplement of paper PMC7125110.
± gives the standard error. For part of these data: This sample holds only a part of the variants without activity.

B1: glmS ribozyme (parent)
chain: AUAAAAGCGCCAGAACUACAGAAAUGUAGUUGACGAGGAGGAGGUUUAUCGAAUUUUCGGCGGAUGCCUCCAAA

Experiments:
Conditions in all cases: with glucosamine-6-phosphate
glucosamine-6-phosphate [1] = variants of: B1; test: kcat; higher = faster cleavage; RNA array
Outline: (§1)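 Barcoded ribozyme variants, transcribed in situ by E. coli RNA polymerase on sequenced MiSeq chips, were followed via a hybridised Cy3 probe at 37 °C. Glucosamine-6-phosphate ranged from 40 μM to 10 mM in HEPES/KCl/Mg(OAc)2 buffer. kobs came from decay fits to per-tile medians, and kcat and KM from weighted Michaelis–Menten fits.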

glucosamine-6-phosphate [2] = variants of: B1; test: KM; higher = weaker cofactor use; RNA array
Outline: as §1

glucosamine-6-phosphate [3] = variants of: B1; test: self-cleavage kobs at 40 uM GlcN6P; higher = faster cleavage; RNA array
Outline: as §1

glucosamine-6-phosphate [4] = variants of: B1; test: self-cleavage kobs at 160 uM GlcN6P; higher = faster cleavage; RNA array
Outline: as §1

glucosamine-6-phosphate [5] = variants of: B1; test: self-cleavage kobs at 640 uM GlcN6P; higher = faster cleavage; RNA array
Outline: as §1

glucosamine-6-phosphate [6] = variants of: B1; test: self-cleavage kobs at 2500 uM GlcN6P; higher = faster cleavage; RNA array
Outline: as §1

glucosamine-6-phosphate [7] = variants of: B1; test: self-cleavage kobs at 10000 uM GlcN6P; higher = faster cleavage; RNA array
Outline: as §1

Row | Variant | kcat (glucosamine-6-phosphate [1]) [s⁻¹] | KM (glucosamine-6-phosphate [2]) [µM] | self-cleavage kobs at 40 uM GlcN6P (glucosamine-6-phosphate [3]) [s⁻¹] | self-cleavage kobs at 160 uM GlcN6P (glucosamine-6-phosphate [4]) [s⁻¹] | self-cleavage kobs at 640 uM GlcN6P (glucosamine-6-phosphate [5]) [s⁻¹] | self-cleavage kobs at 2500 uM GlcN6P (glucosamine-6-phosphate [6]) [s⁻¹] | self-cleavage kobs at 10000 uM GlcN6P (glucosamine-6-phosphate [7]) [s⁻¹]
1 | C11U A12U | 0.00624 ± 0.00051 | 1290 ± 150 | 0.000179 ± 1.8e-05 | 0.000886 ± 0.00016 | 0.00209 ± 0.00035 | 0.00418 ± 0.00075 | 0.00547 ± 0.00057
2 | G59U C71A | 1.28e-05 ± 7.6e-07 |  |  |  |  |  | 
3 | A14C U69C | 0.00147 ± 0.00041 | 2100 ± 820 | 5.59e-05 ± 1.2e-05 | 9.64e-05 ± 1.4e-05 | 0.000344 ± 6.1e-05 | 0.000686 ± 0.00015 | 0.00131 ± 0.0002
4 | U55C C67U | 0.000234 ± 1.4e-05 | 499 ± 120 |  |  | 0.000134 ± 2.5e-05 | 0.000173 ± 4.2e-05 | 0.000231 ± 3e-05
5 | U45C C67G | 0.0224 ± 0.0058 | 5680 ± 1800 | 0.000175 ± 3.4e-05 | 0.000503 ± 0.00012 | 0.00339 ± 0.0011 | 0.00755 ± 0.0031 | 0.0141 ± 0.0026
6 | A15G C58U | 0.000166 ± 4e-05 |  |  |  |  | 2.52e-05 ± 1.2e-05 | 7.17e-05 ± 9.6e-06
7 | A48G U54A | 0.000153 ± 2.2e-05 | 1650 ± 590 |  |  | 3.77e-05 ± 9.3e-06 | 0.000115 ± 1.8e-05 | 0.000123 ± 1.8e-05
8 | U46C U54C | 0.00487 ± 0.00041 | 1870 ± 220 | 0.000109 ± 2e-05 | 0.000406 ± 8.6e-05 | 0.00119 ± 0.00012 | 0.0028 ± 0.00042 | 0.00438 ± 0.0011
9 | A52C C70G | 3.19e-05 ± 1.1e-05 |  |  |  | 3.3e-05 ± 1e-05 | 4.57e-05 ± 1.4e-05 | 
10 | A36U G66A | < 1e-05 |  |  | < 1e-05 |  |  | 
11 | G37C U49G | < 1e-05 |  |  |  |  |  | 
12 | G44U C67G | 0.0189 ± 0.0043 | 1120 ± 340 | 0.00061 ± 6.9e-05 | 0.00226 ± 0.0003 | 0.00865 ± 0.0011 | 0.023 ± 0.0048 | 0.0148 ± 0.0022
13 | U47A | 0.0447 ± 0.0064 | 2150 ± 360 | 0.00084 ± 1.5e-05 | 0.00266 ± 0.00018 | 0.00994 ± 0.00044 | 0.0201 ± 0.0011 | 0.0412 ± 0.0016
14 | U56C C68G | < 1e-05 |  |  | < 1e-05 |  |  | < 1e-05
15 | A14C A42U | 3.4e-05 ± 1.6e-05 |  |  |  |  |  | 2.17e-05 ± 5.9e-06
16 | A12C G32A | 0.00031 ± 2.5e-05 | 3110 ± 470 |  |  | 5.72e-05 ± 1e-05 | 0.000129 ± 1.8e-05 | 0.000244 ± 3.1e-05
